The results in this text go back to PMC11127164, “Brefeldin A and M-COPA block the export of RTKs from the endoplasmic reticulum via simultaneous inactivation of ARF1, ARF4, and ARF5” (The Journal of Biological Chemistry, 2024).

The target in experiment [1] is T1, glutathione S-transferase-fused Golgi-localized γ-adaptin ear-containing, ARF-binding protein 3 (1–316) (UniProt Q9NZ52 1-316).
T1 construct: also called GST-GGA3; GST-GGA3(1–316); source: bought: Cytoskeleton, coated on Sepharose beads
T1 sequence (looked up): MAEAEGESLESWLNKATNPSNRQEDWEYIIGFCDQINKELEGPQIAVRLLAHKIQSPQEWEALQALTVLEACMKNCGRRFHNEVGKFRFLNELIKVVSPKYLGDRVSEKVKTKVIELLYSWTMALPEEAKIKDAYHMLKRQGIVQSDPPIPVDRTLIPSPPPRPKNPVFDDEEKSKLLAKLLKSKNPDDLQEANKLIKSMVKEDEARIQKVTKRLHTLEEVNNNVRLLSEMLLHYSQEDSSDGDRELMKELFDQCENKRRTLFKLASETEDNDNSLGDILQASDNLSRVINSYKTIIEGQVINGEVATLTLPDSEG
The experiment can be described thus: pull-down; GST-GGA3(1–316)-coated Sepharose beads incubated with lysates of GIST-T1 or PC-9 cells at 4 °C for 1 h, washed once, immunoblot for ARFs; cells untreated or treated with 1 μM M-COPA or 1 μM BFA for 4 h (GIST-T1) or 200 nM M-COPA for 8 h (PC-9). To be noted: one partner purified. (In general: In western blotting, separated proteins are transferred to a membrane and probed.)

The target of experiment [2] is T2, Golgi-specific BFA-resistance guanine nucleotide exchange factor 1 (human (endogenous in GIST-T1), UniProt Q92538 1-1860).
T2 construct: Golgi-specific BFA-resistance guanine nucleotide exchange factor 1 (GBF1), human, endogenous in GIST-T1 cells; Immunoprecipitated with an anti-GBF1 antibody on Dynabeads Protein G; also called GBF1; source: endogenous, GIST-T1 lysate
T2 sequence (Q92538 whole entry): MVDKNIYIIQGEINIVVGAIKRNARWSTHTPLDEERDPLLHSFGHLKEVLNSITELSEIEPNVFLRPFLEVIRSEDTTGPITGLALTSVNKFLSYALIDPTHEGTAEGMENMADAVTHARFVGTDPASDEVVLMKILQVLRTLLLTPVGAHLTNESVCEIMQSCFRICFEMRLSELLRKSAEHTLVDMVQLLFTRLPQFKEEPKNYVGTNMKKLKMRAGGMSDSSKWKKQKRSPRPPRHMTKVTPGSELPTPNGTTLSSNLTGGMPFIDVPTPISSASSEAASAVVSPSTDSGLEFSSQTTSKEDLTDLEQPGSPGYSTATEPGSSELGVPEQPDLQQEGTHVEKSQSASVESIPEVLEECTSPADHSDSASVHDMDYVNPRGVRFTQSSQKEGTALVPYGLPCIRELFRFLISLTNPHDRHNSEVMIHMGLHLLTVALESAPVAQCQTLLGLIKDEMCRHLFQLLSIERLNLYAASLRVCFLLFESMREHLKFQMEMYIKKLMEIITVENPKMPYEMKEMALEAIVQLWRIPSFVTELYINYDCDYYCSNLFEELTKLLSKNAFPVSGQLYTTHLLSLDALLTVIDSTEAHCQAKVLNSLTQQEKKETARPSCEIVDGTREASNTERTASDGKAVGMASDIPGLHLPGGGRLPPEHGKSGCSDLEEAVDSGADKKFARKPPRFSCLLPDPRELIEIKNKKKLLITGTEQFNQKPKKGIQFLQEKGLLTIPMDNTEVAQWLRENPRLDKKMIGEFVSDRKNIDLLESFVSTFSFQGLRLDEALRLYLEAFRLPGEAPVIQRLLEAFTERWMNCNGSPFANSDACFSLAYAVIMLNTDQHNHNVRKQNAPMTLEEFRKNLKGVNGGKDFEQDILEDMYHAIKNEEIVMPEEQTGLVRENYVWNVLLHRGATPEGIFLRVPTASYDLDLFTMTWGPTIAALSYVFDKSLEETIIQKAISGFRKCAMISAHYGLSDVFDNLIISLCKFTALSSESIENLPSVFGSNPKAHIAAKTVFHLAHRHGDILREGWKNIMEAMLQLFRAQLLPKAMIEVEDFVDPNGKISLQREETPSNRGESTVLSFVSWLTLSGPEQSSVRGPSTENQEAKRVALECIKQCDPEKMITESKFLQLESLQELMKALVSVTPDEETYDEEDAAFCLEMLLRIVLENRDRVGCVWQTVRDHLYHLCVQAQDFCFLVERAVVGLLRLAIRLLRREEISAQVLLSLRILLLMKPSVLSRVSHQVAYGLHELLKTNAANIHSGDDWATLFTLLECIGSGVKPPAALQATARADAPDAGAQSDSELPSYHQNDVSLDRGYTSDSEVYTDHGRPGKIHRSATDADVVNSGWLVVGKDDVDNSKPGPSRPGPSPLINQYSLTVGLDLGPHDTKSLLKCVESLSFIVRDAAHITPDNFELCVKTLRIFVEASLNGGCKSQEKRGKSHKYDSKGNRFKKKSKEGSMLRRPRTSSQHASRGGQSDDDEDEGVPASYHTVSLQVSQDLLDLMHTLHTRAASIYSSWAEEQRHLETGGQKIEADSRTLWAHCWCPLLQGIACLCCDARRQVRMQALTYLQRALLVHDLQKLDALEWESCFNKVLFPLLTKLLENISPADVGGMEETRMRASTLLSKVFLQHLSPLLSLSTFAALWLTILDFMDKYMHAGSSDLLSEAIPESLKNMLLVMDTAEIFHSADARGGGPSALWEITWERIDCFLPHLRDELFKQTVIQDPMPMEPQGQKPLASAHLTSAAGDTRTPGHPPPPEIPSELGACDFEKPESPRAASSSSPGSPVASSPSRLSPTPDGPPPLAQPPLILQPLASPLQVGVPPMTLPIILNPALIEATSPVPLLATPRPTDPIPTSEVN
Description: co-IP; endogenous GBF1 immunoprecipitated from GIST-T1 lysate (NP-40 lysis buffer, 50 mM HEPES pH 7.4) with anti-GBF1 on Dynabeads Protein G, 4 °C, 5 h, immunoblot for ARFs; cells untreated or treated with 1 μM M-COPA for 4 h; co-precipitated ARF normalised to GBF1. To be noted: partners not purified.

A value given as a limit tells only on which side of the number the result lay.

B1: ADP-ribosylation factor 4 (natural protein, human (endogenous in GIST-T1 and PC-9), UniProt P18085 1-180, looked up)
chain: MGLTISSLFSRLFGKKQMRILMVGLDAAGKTTILYKLKLGEIVTTIPTIGFNVETVEYKNICFTVWDVGGQDRIRPLWKHYFQNTQGLIFVVDSNDRERIQEVADELQKMLLVDELRDAVLLLFANKQDLPNAMAISEMTDKLGLQSLRNRTWYVQATCATQGTGLYEGLDWLSNELSKR
notes: ADP-ribosylation factor 4 (ARF4), human, endogenous in GIST-T1 and PC-9 cells; also called ARF4; source: endogenous, GIST-T1 and PC-9 lysate
For the molecule B1, the “level of GGA3-bound ARF after M-COPA treatment of the cells, relative to the untreated control” value in experiment [1] is < 18%. Further, the “fold increase of ARF co-immunoprecipitated with GBF1 after M-COPA treatment, relative to the untreated control” value in experiment [2] stood at 14.1 fold.

B2: ADP-ribosylation factor 1 (natural protein)
chain: not shown
notes: ADP-ribosylation factor 1 (ARF1), human, endogenous in GIST-T1 and PC-9 cells; also called ARF1; source: endogenous, GIST-T1 and PC-9 lysate
Turning to B2, the “level of GGA3-bound ARF after M-COPA treatment of the cells, relative to the untreated control” value in experiment [1] is < 18%. In addition, the “fold increase of ARF co-immunoprecipitated with GBF1 after M-COPA treatment, relative to the untreated control” value in experiment [2] was 6.89 fold.

B3: ADP-ribosylation factor 5 (natural protein, human (endogenous in GIST-T1 and PC-9), UniProt P84085 1-180, looked up)
chain: MGLTVSALFSRIFGKKQMRILMVGLDAAGKTTILYKLKLGEIVTTIPTIGFNVETVEYKNICFTVWDVGGQDKIRPLWRHYFQNTQGLIFVVDSNDRERVQESADELQKMLQEDELRDAVLLVFANKQDMPNAMPVSELTDKLGLQHLRSRTWYVQATCATQGTGLYDGLDWLSHELSKR
notes: ADP-ribosylation factor 5 (ARF5), human, endogenous in GIST-T1 and PC-9 cells; also called ARF5; source: endogenous, GIST-T1 and PC-9 lysate
With B3, the “level of GGA3-bound ARF after M-COPA treatment of the cells, relative to the untreated control” value in experiment [1] is < 18%. The “fold increase of ARF co-immunoprecipitated with GBF1 after M-COPA treatment, relative to the untreated control” value in experiment [2] turned out to be 8.66 fold.
